Results: the supplement of paper PMC12764529
± gives the half width of the 95% confidence interval.

Legend:
[1] = folding stability dG unfold (combined trypsin and chymotrypsin); higher = more stable
In short: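 Designed mini-proteins (under 80 residues, no cysteine) in a PA-tagged cDNA display construct were digested with trypsin and chymotrypsin. Each protease was used at 11 concentrations (threefold dilutions) plus a no-protease condition, followed by sequencing. K50 was inferred by Bayesian fitting of sequencing counts, and unfolding free energy was derived against a sequence-predicted unfolded-state K50 and a shared folded-state K50, per protease or combined. Only designs with AlphaFold2 dimer inter-PAE above 15 were kept.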

[2] = folding stability dG unfold from chymotrypsin proteolysis; higher = more stable
Method: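 Folding stability of de novo designed mini-proteins (<80 aa, no Cys; designed by TrROS, TrMRF, ProteinMPNN and the joint model) was measured by cDNA display proteolysis with trypsin and chymotrypsin. Each protease was used at 11 concentrations in a threefold dilution series plus a no-protease condition. K50 was inferred by Bayesian fitting of sequencing counts, and dG unfold was derived against a sequence-predicted unfolded-state K50 (Tsuboyama et al. method). Sequences shown include variable-length N-terminal GS-type padding (SAGGSAGG...) inside a display construct carrying a PA tag. Rows were kept only if the AF2 dimer inter-PAE was >15, to exclude likely homo-oligomers.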

Row | Sequence | folding stability dG unfold [1] [kcal/mol] | folding stability dG unfold [2] [kcal/mol]
1 | SAGGSAGGSAGKLRFRRVGLVLELNEDGSLSLSPIEEEVEVEVPEPLPVGLGLGGKPYLLSAGGSAGGSAGG [r17_418_TrMRF] | -0.0408 ± 0.22 | 0.325 ± 0.27
2 | SAGGGLARELFEAENLPVVVEEEERDGKPVLRLVVDAGDKPLVFESDGEDVERAVREAARELGLPGLSAGGS [r8_226_TrMRF] | 0.337 ± 0.15 | 0.674 ± 0.085
3 | SAGGSAGGPMKPVEYEIPLPGRPITIEVNPPYGYIDIEWPPNGKERTVPMSPGQSAEDILKELFSAGGSAGG [r6_166_TrROS] | < -1 | -1.41 ± 0.32
4 | SAGGMPVPKEKVKSVLYLPHPESDEPEVLVLAELGGKPVLFVIPSELSLEEAIKAVEEGVEAGPIDLGSAGG [r13_225_TrMRF] | -0.355 ± 0.27 | 0.402 ± 0.14
5 | SADPADVDVPLPVVGTAPALTSAPPGARLELVRLPDLGALARVDDGSVVALTVVVNDDGEVLAVAVEPAPSA [r9_1195_TrMRF] | 0.252 ± 0.066 | 0.894 ± 0.028
6 | SAGGSADFQVEVERDPNNGYYEIEVRYPNGMPVEIEYNPKKNKIEVKVTPGFPPSMAENAAEELLDSAGGSA [r15_511_TrROS] | -0.535 ± 0.49 | 0.136 ± 0.058
7 | SAGGSASSGSMPLTKETDPLDGAGEVERVLYEDGTVVEIVTGADGKPTLRTRKVEIEPPEPLLLLRSAGGSA [r15_478_JUSTAS] | < -1 | -0.501 ± 0.63
8 | SAGGSAGGSPVRPRTGTVYDPETGARVDVLEYEFPLPDGTPVTVTEVVVTDGDTRTTATLVDPSAGGSAGGS [r12_619_TrMRF] | -0.263 ± 0.073 | 0.29 ± 0.014
9 | SAGGSAGGSAGGSKIIRIKAKPNEKKEIKIDGKWYKLYADKDNPDRVYIERPDGTIDPASAGGSAGGSAGGS [r4_488_TrMRF] | 0.26 ± 0.13 | 0.685 ± 0.14
10 | SAGGSAGGSAGGGMDEEETVELDLTTKGTDPAEVEAARAARAEELGLPLADVRVRVSAESAGGSAGGSAGGS [r10_401_JUSTAS] | < -1 | -0.252 ± 0.036
11 | SAGGMAEELAKLLKELFPDEEVEVEVKVEEKEVNGKKYLTITVTVRNKKTGKKIKEIKLVIELPEEESAGGS [r8_207_TrROS_Hall] | > 6 | 4.23 ± 0.32
12 | SAGMIVVPLPLSVEEAPAFARELLEAAEAAGLEVTIRVPDEAVAEAVREAAPPDAPVRIEPLEPGEPVESAG [r5_911_JUSTAS] | 0.128 ± 0.11 | 0.58 ± 0.054
13 | SAGGPPDKSVTVTVTDEKGNPITYPVTASKPVPVYLDDPEKKLEFTVPPDSDFTAPVPPGRVSVDLRSAGGS [r16_456_JUSTAS] | 0.202 ± 0.12 | 0.637 ± 0.046
14 | SAGGSAGGSAGGMSSTVTVTTTPVDPNVGLYRVTTTTYYVDPDGPAHPGTSVSLVNRALSSAGGSAGGSAGG [r11_51_JUSTAS] | < -1 | -1.34 ± 0.83
15 | SAGGSAGGSAGGMDEPVSLPVRKPILSPGSPEEAEARAAELKAPGVEVDAVPRDAAGRLESAGGSAGGSAGG [r11_703_JUSTAS] | 0.126 ± 0.13 | 0.764 ± 0.037
16 | SAGGSAGGSAGRKTLPMRNPNNGHEVTAEIEDENGKPIKIEAPMNSPEMRDMARDFAKKISAGGSAGGSAGG [r11_119_TrROS] | -0.154 ± 0.18 | 0.355 ± 0.13
17 | SAGGSMLTVDYTVSPDVDLEEALAAVAEEVRAALLAETGGPVAVDVRPVSRPPDGTVRIRVDVALESAGGSA [r2_214_JUSTAS] | 0.525 ± 0.12 | 0.991 ± 0.028
18 | SAGGSAGGSAGGSSRVLKGKDTTVVLYPDSVTFYPGSTGTPVVKSISDPEVVEEIKKLLSAGGSAGGSAGGS [r4_353_JUSTAS] | < -1 | -0.192 ± 0.33
19 | SAGGSAGGSAGGSHIQFDPEGRWKIRNRDNNNTREFPADDLPKLPPDFDIPKGARIEPYSAGGSAGGSAGGS [r4_91_TrROS] | -0.518 ± 0.19 | -0.134 ± 0.25
20 | SAGGPNMRTVTIEIPPENLKKDPDGEPYSAQDIAKHIAKHLPPDNVEIEIDKIDPDNGWFKVTIIVPSAGGS [r16_284_TrROS] | -0.514 ± 0.44 | -0.0083 ± 0.2
21 | SAGGSAGGSAGPRVKFRFPGQEHTIPPGRRVYFGNGKKFDPGEPLDDIPPDNITPVEIEPSAGGSAGGSAGG [r17_511_TrROS] | -0.609 ± 0.15 | -0.297 ± 0.18
22 | SAGGSAGGSAGGMIWIPESELSKLPESFKNFKILKKTPLTLPHPSKKNKPVVLVEIEKKESAGGSAGGSAGG [r7_237_JUSTAS] | 0.122 ± 0.53 | 0.696 ± 0.23
23 | SAGGSAGGSAGGSLAPALAAAIAPLLPKDGTFVFVAEPVGDRLVIVTETRPLREDEERGSAGGSAGGSAGGS [r4_350_TrMRF] | -0.707 ± 0.25 | 0.496 ± 0.047
24 | SAGGSAGGSMTITVETTSKDPAVAEKELTEKVKKEYPPSVKVEIDPVSSPDGVARVRATIIRESAGGSAGGS [r20_122_JUSTAS] | 0.291 ± 0.19 | 0.529 ± 0.09

Row | Sequence | folding stability dG unfold [1] [kcal/mol] | folding stability dG unfold [2] [kcal/mol]
25 | SAGKTVKVTVEKEVTLENGNKVTVKVEKTVELKPPPPKKITLSPEEIEEIDKETGEIRNKKTNKVFKIKSAG [r5_807_TrROS_Hall] | < -1 | -0.0446 ± 0.37
26 | SAGGSAGGSAGGGMITFSSESVEEFGSVTPVNVVRRVTRYTTKVGDTIIETTEEEVVPLESAGGSAGGSAGG [r7_248_JUSTAS] | -0.368 ± 0.28 | -0.049 ± 0.4
27 | SAGGGSSVTYDPATGEVTVTLHPVDPHPGRLRSRTLPLPAPGSPEEVRERIRALVEAEPAWSTDLTAASAGG [r13_284_JUSTAS] | 0.423 ± 0.18 | 0.892 ± 0.12
28 | SAGGSAGGMTVTVEIPLPPDVPIEEVKEKVKESGYPPTKIEYDPATGKATITLSPEAKEFLEKKSAGGSAGG [r6_307_JUSTAS] | < -1 | -0.425 ± 0.11
29 | SAGGSAGGSAGMVIKSPDGRIIEVEEEEEGEKLKIKRITYVGDKYTPSEEEIEVPPVDLKSAGGSAGGSAGG [r11_106_JUSTAS] | < -1 | -0.201 ± 0.54
30 | SAGGRVKVEIYNPDSGRPMEIEINPGNGTLEIRNPNNGEPVHEFPIPDIKEIEIPFSPNGILIKIEVDSAGG [r13_720_TrROS] | -0.137 ± 0.33 | 0.281 ± 0.043
31 | SAGGPIVTSEVVETRPLPDGSTLVTVKTTKLLPLPVETTAPDGTVSPVPPGTPPVTVTETHLVVLEPSAGGS [r16_693_JUSTAS] | 0.0694 ± 0.22 | 0.684 ± 0.055
32 | SAGGSAGGSMPEKKFKAEVVEEIEDPKTGKKFYFLKDTKQIFVENKDGSRTAITIDEDKLEIVSAGGSAGGS [r12_420_TrROS_Hall] | 0.0252 ± 0.15 | 0.433 ± 0.098
33 | SAGGSAEKPPIKIEIDTETDPGNGMYEVSIPIRQKNGKPKGTIDIPFNTPQQAEDWLEDLGFDKIESAGGSA [r15_127_TrROS] | < -1 | -0.865 ± 0.61
34 | SAGGSAMVIDSKEVLEDDVLVTTTAITVDPSTGIKTEDVEEKPVPLPDGTPLPPRKTTRTTPLANASAGGSA [r15_623_JUSTAS] | 0.175 ± 0.13 | 0.784 ± 0.025
35 | SMKVLEGEEEAKKLAEEEGVPVIPVPADVSLEEIKKRIKETPGFPPDTVVATVIPKEPGRTTVIVLPLGKSA [r9_314_JUSTAS] | 0.0112 ± 0.1 | 0.474 ± 0.035
36 | SAGGSAGGSAGGGSMILNVRTVVEEDFPINDRRKVTVLDPVVLVPAVAFDPSTGKATPVSAGGSAGGSAGGS [r10_815_JUSTAS] | 0.298 ± 0.083 | 0.667 ± 0.085
37 | SAKKVKIKVVEIEKKEDYVLIKIKLEKNVKKGEKVKIIIKNKNGEKKEITIKNGYIYIKMKKKDIEIKISAG [r14_350_TrROS_Hall] | 3.93 ± 0.85 | 4.1 ± 0.29
38 | SAGGSAGGSAGGTKELAEALRDAGYEVEYDKATNKIEVRPKPKPKPVVKTVTFVPKEDLSAGGSAGGSAGGS [r10_1173_TrROS_Hall] | -0.51 ± 0.36 | -0.433 ± 0.11
39 | SAGGSAGGSAGGMFYIKIPNGKQFPFKSKEEFKDQLRERNGRPMKIKDIEIQPLDPNQFSAGGSAGGSAGGS [r10_62_TrROS] | -0.0888 ± 0.32 | 0.586 ± 0.26
40 | SAGGSAGGDHVQIEFPIWRMKEVERNPDNGEPRMDMEPIEITIWYPPDDPEKAKKIADEILDFISAGGSAGG [r6_280_TrROS] | 0.409 ± 0.18 | 0.891 ± 0.14
41 | SAGGDPALLLPVERKVTIEYTDEDGKKFTVGDVTVLPSPEILVKIPGTGETIRVPPSVVKKVEEVPESAGGS [r8_410_JUSTAS] | < -1 | -0.455 ± 0.18
42 | SAGGSAGGSAGGSPSTRTPITVEVKSPTALSRFTYDTGLSPAEIAAPFAAGGYTVTFVSSAGGSAGGSAGGS [r10_540_JUSTAS] | -0.538 ± 0.16 | -0.127 ± 0.22
43 | SAGGSIPAEELAAALAALPELPAAEVEVVVEERPDEVVVDVRFADPEHPRHVALLRRAERLLAEAASAGGSA [r2_3_TrMRF] | -0.305 ± 0.22 | 0.373 ± 0.3
44 | SAGGSAGGSAGGMTRTITVKSPGDAEAVVEELKPLGWEVKEIKKDTANPNVYTVTVEKPSAGGSAGGSAGGS [r10_104_JUSTAS] | 0.198 ± 0.25 | 0.752 ± 0.15
45 | SAGGMESSVLSVSTITRSAPPGSPLASTTATVTVTKTDGRTIVTVPATGVVYTVNPDGTVTADPVDPPSAGG [r13_721_JUSTAS] | < -1 | -0.515 ± 0.4
46 | SAGGSAGGSAGMVIELPVPGTMSPEEARARAEEVAEELARRTGRPVEVREVRLVTPEELASAGGSAGGSAGG [r17_68_JUSTAS] | -0.733 ± 0.4 | -0.364 ± 0.086
47 | SAGGMTITLPKNMTKEELEALAKKLEEETGLKVTIEYNEETNEVTITVEGLSEEEQERIKKLLEEAASAGGS [r16_227_TrROS_Hall] | > 6 | 3.49 ± 0.34
